Data on one molecule can be found in PMC3323580, “Lack of Evidence from Studies of Soluble Protein Fragments that Knops Blood Group Polymorphisms in Complement Receptor-Type 1 Are Driven by Malaria” (PLoS ONE, 2012).

In this assay the target is T1, C1q, classical complement pathway protein (UniProt P02745 23-245; P02746 28-253; P02747 29-245).
T1 construct: Amine-coupled to a CM5 chip for SPR; in solution (140 ng/ml) for ELISA; source: bought: Complement Technology (Texas)
Put plainly: SPR; C3b (1620 RU), C4b (1518 RU) and C1q (2125 RU) amine-coupled on three flow cells of one CM5 chip; CR1 fragments flowed at 30 µl/min, Biacore T100, 25°C, HBS-EP pH 7.4 (10 mM Hepes, 150 mM saline, 3 mM EDTA, 0.05% polysorbate 20); steady-state fit, one-to-one model; duplicates. Conditions: both partners purified.

T1 sequence (P02745 23-245, chain 1 of 3): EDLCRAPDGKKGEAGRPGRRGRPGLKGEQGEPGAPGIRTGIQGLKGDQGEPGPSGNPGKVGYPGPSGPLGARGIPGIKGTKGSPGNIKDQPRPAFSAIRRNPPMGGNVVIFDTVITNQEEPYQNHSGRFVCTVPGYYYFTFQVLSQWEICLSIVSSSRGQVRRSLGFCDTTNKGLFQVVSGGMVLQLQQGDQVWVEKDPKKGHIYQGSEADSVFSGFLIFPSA
T1 sequence (P02746 28-253, chain 2 of 3): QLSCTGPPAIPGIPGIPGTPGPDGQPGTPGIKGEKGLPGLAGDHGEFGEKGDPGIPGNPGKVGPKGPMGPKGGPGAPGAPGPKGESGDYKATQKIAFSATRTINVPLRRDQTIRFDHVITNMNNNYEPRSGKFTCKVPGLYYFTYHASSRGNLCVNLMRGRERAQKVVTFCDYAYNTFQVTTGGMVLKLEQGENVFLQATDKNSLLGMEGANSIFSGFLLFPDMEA
T1 sequence (P02747 29-245, chain 3 of 3): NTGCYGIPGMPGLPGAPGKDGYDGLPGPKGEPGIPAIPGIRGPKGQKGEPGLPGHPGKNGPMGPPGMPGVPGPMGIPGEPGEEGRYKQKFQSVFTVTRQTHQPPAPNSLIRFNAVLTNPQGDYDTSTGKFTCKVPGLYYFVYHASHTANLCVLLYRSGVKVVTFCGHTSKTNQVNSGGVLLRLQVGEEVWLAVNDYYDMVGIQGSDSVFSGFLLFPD

B1: soluble CR1 (sCR1), full-length ectodomain of complement receptor-type 1 (receptor)
chain: not shown
notes: complement receptor-type 1 (CR1, CD35), human, soluble full-length ectodomain; also called full-length sCR1; source: a gift from Henry Marsh, Celdex Pharmaceuticals
B1 yielded a Kd of 8 ± 1 µM.
